Target: KLC2^TPR (tetratricopeptide repeat domain of kinesin light chain 2), wild type (UniProt O88448 217-426)
Experiment: fluorescence polarisation

| Binder | Kd |
| --- | --- |
| TNLEWDDSAI [SKIP^WD peptide (ten amino acid long peptide centered on the WD motif of SKIP)] | 24 µM |
| PSTDWEDGDL [SKIP^WE peptide (equivalent peptide centered on the WE motif of SKIP)] | > 110 µM |

— publication PMC3693442 (Science (New York, N.Y.), 2013)
